Measured values reported in patent US20190105378.

Target: FLAG-TEV recognition sequence-granzyme B AA21-240 fusion whose recognition site (SEQ ID NO: 6) has a G instead of Q, P10144
Sequence (P10144 whole entry, looked up, the tested form may be a part): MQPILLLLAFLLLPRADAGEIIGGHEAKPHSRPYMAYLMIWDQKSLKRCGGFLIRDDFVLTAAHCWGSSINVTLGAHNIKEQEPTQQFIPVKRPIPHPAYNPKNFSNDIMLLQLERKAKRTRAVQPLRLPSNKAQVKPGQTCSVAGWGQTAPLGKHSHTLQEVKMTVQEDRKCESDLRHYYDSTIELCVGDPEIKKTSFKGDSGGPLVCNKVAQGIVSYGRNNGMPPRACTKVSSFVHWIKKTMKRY

B1: tobacco etch virus protease with N-terminal FLAG sequence (product of plasmid pSTdna 1023) (protein)
chain: MDYKDDDDKGDYKDDDDKGGGTGESLFKGPRDYNPISSTICHLTNESDGHTTSLYGIGFGPFIITNKHLFRRNNGTLLVQSLHGVFKVKNTTTLQQHLIDGRDMIIIRMPKDFPPFPQKLKFREPQREERICLVTTNFQTKSMSSMVSDTSCTFPSSDGIFWKHWIQTKDGQCGSPLVSTRDGFIVGIHSASNFTNTNNYFTSVPKNFMELLTNQEAQQWVSGWRLNADSVLWGGHKVFMSKPEEPFQPVKEATQLMNELVYSQ
For B1, the “cleavage by TEV” value was “no cleavage by TEV takes place (not shown)”.
